Two molecules from US20220144945A1 (Biogen, published 2022) can be followed below.

For this test, the target named is T1, LINGO-1 ectodomain (human, UniProt Q96FE5 42-561).
T1 construct: also called Sp35
T1 sequence: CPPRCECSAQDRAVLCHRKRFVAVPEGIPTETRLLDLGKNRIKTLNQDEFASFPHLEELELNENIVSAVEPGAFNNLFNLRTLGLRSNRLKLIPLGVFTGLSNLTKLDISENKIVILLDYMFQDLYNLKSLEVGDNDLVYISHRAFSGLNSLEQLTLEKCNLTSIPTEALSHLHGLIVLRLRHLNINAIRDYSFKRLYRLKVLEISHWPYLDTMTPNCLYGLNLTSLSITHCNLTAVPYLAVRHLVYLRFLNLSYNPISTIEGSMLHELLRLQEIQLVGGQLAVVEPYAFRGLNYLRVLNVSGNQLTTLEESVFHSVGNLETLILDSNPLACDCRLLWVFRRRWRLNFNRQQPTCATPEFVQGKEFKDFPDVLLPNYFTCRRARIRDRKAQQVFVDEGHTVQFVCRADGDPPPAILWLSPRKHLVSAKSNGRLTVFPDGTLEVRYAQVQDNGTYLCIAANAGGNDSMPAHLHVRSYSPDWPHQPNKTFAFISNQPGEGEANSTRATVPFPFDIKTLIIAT
Put plainly: method not stated.

B1: Li81 (antibody, human IgG1, kappa, V domains shown)
VH: EVQLLESGGGLVQPGGSLRLSCAASGFTFSAYEMKWVRQAPGKGLEWVSVIGPSGGFTFYADSVKGRFTISRDNSKNTLYLQMNSLRAEDTAVYYCATEGDNDAFDIWGQGTTVTVSS
VL: DIQMTQSPATLSLSPGERATLSCRASQSVSSYLAWYQQKPGQAPRLLIYDASNRATGIPARFSGSGSGTDFTLTISSLEPEDFAVYYCQQRSNWPMYTFGQGTKLEIKR
notes: also called anti-LINGO-1 antibody; anti-Lingo-1
What is called Kd is the equilibrium constant for the complex coming apart. Read a high Kd as a looser complex. The molecule B1 registered a dissociation constant (Kd) not above 0.02 nM.

B2: Fab of Li81 (Fab, V domains shown)
VH: B1 VH
VL: DIQMTQSPATLSLSPGERATLSCRASQSVSSYLAWYQQKPGQAPRLLIYDASNRATGIPARFSGSGSGTDFTLTISSLEPEDFAVYYCQQRSNWPMYTFGQGTKLEIK
notes: also called Li81 Fab
With B2, the Kd was not above 0.05 nM.
